Reference: article PMC6317530

Substrate: O=C(O)c1cc(=O)[nH]c(=O)n1[C@@H]1O[C@H](COP(=O)(O)O)[C@@H](O)[C@H]1O
Assay: purified protein
Conditions: pH 7.1 (10 mM MOPS), 25 °C, I = 0.105 (NaCl)

B1: ScOMPDC (yeast orotidine 5′-monophosphate decarboxylase) (Saccharomyces cerevisiae S288C; A160S/C155S/N267D/Q215A/S154A/S2H/Y217F) (protein)
chain: MHKATYKERAATHPSPVAAKLFNIMHEKQTNLCASLDVRTTKELLELVEALGPKICLLKTHVDILTDFSMEGTVKPLKALSAKYNFLLFEDRKFADIGNTVKLQYSAGVYRIAEWADITNAHGVVGPGIVSGLKQAAEEVTKEPRGLLMLAELASKGSLSTGEYTKGTVDIAKSDKDFVIGFIAQRDMGGRDEGYDWLIMTPGVGLDDKGDALGAQFRTVDDVVSTGSDIIIVGRGLFAKGRDAKVEGERYRKAGWEAYLRRCGQQD
Km: 1.5 ± 0.05 mM
